The assay has as its target T1, GST-HCCS (human holocytochrome c synthase, GST-tagged) (human, UniProt P53701 1-268).
T1 construct: human HCCS (holocytochrome c synthase), recombinant, from pGEX GST:HCCS; Carries non-covalent heme liganded to His154 (about 10% occupied as purified, about 30% after heme loading); also called holocyt c synthase; mitochondrial cyt c synthase
T1 sequence (looked up): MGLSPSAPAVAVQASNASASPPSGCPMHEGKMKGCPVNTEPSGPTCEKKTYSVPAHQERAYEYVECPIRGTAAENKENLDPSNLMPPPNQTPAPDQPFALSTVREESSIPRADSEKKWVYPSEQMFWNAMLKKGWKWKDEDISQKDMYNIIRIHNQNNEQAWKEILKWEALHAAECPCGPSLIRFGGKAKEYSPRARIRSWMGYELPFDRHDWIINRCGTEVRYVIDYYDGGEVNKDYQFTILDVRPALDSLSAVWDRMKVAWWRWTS
Kind of assay: UV-vis absorption spectroscopy; anaerobic in vitro reaction of purified HCCS with peptide, 5 mM DTT, 37°C, 1 hr; reduced alpha peak at 552-555 nm read as heme-attached peptide still bound to HCCS (550 nm for a free heme-attached peptide). The following applies: both partners purified.

The results in this text go back to paper PMC8112865, “In vitro reconstitution reveals major differences between human and bacterial cytochrome c synthases” (eLife, 2021).

Positions of bridges follow the written chain, without caps; N, C: chain ends. No end group written: not given here.

B1: heme-attached 16mer (product of the HCCS reaction) (peptide)
peptide: KGKKIFIMKCSQCHTV
modifications: linker 10-13 via heme; also: biotin label, position not given here
notes: stretch of cytochrome c with alpha helix 1 and CXXCH; The product of m6 in the HCCS reaction; source: synthetic peptide (RS-synthesis), heme attached in vitro by GST-HCCS
Take B1: the binding result is reported as “binds”.
